The text below walks through data of paper PMC10237670, “Biochemical properties of naturally occurring human bloom helicase variants”.

The target in data set [1] is T1, WT BLMcore (Homo sapiens, UniProt P54132 636-1298). Briefly: EMSA; 5 mM MgCl2; smear; estimated apparent KD; 50 mM Tris-HCl pH 7.5, 50 mM KCl, 5 mM MgCl2, 1 mM DTT, 0.1 mg/mL BSA, 40 nM DNA, 30 min room temperature; 5% gel in TBE + 100 mM KCl at 4 C. The note with it: protein: recombinant, (HisTrap purified).
The target of data set [2] is T1, WT BLMcore. Briefly: EMSA; 5 mM MgCl2; distinct shift; estimated apparent KD; 50 mM Tris-HCl pH 7.5, 50 mM KCl, 5 mM MgCl2, 1 mM DTT, 0.1 mg/mL BSA, 40 nM DNA, 30 min room temperature; 5% gel in TBE + 100 mM KCl at 4 C. The following applies: protein: recombinant; (HisTrap purified); label: 3'-FAM on oAV320 (strand 2); 18 bp duplex, 3' overhang 39 nt on strand 1.

T1 sequence (P54132 636-1298): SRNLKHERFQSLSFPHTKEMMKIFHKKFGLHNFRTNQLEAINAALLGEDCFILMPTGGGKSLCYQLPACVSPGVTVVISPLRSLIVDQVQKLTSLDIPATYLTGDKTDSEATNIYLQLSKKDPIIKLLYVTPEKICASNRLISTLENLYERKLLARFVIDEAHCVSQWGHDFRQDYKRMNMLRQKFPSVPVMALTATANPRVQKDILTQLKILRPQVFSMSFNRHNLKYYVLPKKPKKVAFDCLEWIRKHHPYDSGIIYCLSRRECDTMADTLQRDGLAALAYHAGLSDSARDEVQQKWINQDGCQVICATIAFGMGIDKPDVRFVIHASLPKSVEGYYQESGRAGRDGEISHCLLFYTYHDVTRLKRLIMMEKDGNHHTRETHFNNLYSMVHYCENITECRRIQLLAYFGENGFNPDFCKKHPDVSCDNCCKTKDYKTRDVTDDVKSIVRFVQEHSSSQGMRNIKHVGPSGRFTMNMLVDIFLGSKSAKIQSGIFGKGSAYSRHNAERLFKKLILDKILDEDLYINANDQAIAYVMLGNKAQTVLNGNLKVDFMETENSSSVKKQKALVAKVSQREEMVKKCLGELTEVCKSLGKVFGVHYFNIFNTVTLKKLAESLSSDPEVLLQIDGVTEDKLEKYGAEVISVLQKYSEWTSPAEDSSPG

Turning to GGGTTAGGGTTAGGGTTAGGGTTTTTTTTTT (structured_DNA) [G4 DNA with 3' ssDNA overhang (FAM-oRC96)], in the data set with WT BLMcore [1] (label: 3'-FAM, intramolecular G4 (folded in 100 mM KCl) with 3' T-rich ssDNA tail), the Kd was approximately 125 nM.

Consider TTTTTTTTTTTTTTTTTTTTTTTTTTTTTT (ssDNA) [FAM-dT30 (ssDNA)], for which the Kd with WT BLMcore [1] (single strand) is approximately 125 nM.

B1: partial dsDNA with 3' ssDNA overhang (oRC32/FAM-oAV320) (dsDNA)
DNA 1: TGGCGACGGCAGCGAGGCTTAGGGTTAGCGTTAGCGTTAGGGTTTTTTTTTTTTTTT
DNA 2: GCCTCGCTGCCGTCGCCA
Take B1: the Kd with WT BLMcore [2] is approximately 79 nM.
